Reference: the supplement of paper PMC11780869

System: Bacillus subtilis
Test: cleaved RNA product abundance (RNA/gDNA barcode ratio) relative to median wild-type variant (ratio to wild type); higher = more accumulation of the downstream cleavage product
Protocol: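 MPRA in B. subtilis. Mutagenized RNase Y cleavage-site regions (9% mutation rate) were inserted into a barcoded reporter mRNA (truncated aprE or tetM). Cells were grown in LB at 37°C to OD600 0.3. The cleaved RNA isoform was gel-purified and its barcodes counted; the RNA:gDNA barcode ratio was normalised to the median wild-type variant, and the median over barcodes is reported per variant. The printed sequence is the variable window only; the reporter flanks are not printed.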

[1] = experiment (reporter, strain, medium): exp 2b: truncated aprE reporter, strain BJT200, cleavage site: cggR-gapA (positions -7 to +36 mutated)
[2] = experiment (reporter, strain, medium): exp 4a: truncated aprE reporter, strain BJT201 with 2% xylose (RNase J1 expressed), cleavage site: cggR-gapA (positions -7 to +36 mutated)
[3] = experiment (reporter, strain, medium): exp 8a: truncated aprE reporter, strain BJT201 with 2% xylose (RNase J1 expressed), cleavage site: glnRA (positions -5 to +31 mutated)

Sequence | cleaved RNA product abundance [2] | also measured
ACAGACGAAGGAGCCGCAAATAAGTTATTAAGGGATGAATAATCCCTCAATATAAATATCTCTCACTTATTTAAA | 0.932 | cleaved RNA product abundance [1]: 0.972; cleaved RNA product abundance (experiment (reporter, strain, medium): exp 6: tetM reporter, strain 168, cleavage site: cggR-gapA (positions -7 to +36 mutated)): 1.07
CGACATGTCCCGCTTCTTTCATTAATCCGTAAGCAACTGTTTTGCTATATACATTTAACATTTAAGAGGAGGAAT | – | cleaved RNA product abundance [3]: 0.275
ACAGACGAAGGAGCCGCAAAGAAGTTATTAAGGTATGACTAATCCCTCAATATAAATATCTCTCACTTATTTAAA | 0.107 | –
ACAGACGAAGGAGCCGCAAAGAAGTTATTCAGGGAAGAATAATCCCTCAATATAAATATCTCTCACTTATTTAAA | 0.697 | –
ACAGACGAAGGAGCCGCAAAGATGTTATTAAGGAATGAATAATCCCTCAATATAAATATCTCTCACTTATTTAAA | 0.145 | cleaved RNA product abundance [1]: 0.102
ACAGACGAAGGAGCCGCACAGAAGTTATTAAGTGATGAATAATCCCTCAATATAAATATCTCTCACTTATTTAAA | 0.126 | cleaved RNA product abundance [1]: 0.106
ACAGACGAAGGAGCCGCAAAGAAGTTATAAAGGGATGAATGATCCCTCAATATAAATATCTCTCACTTATTTAAA | 0.273 | cleaved RNA product abundance [1]: 0.193
ACAGACGAAGGAGCCGCAAAGAAGTTATTAAGGGACAAATAATCCCTCAATATAAATATCTCTCACTTATTTAAA | 0.84 | –
ACAGACGAAGGAGCCGCAAAGAGGTTATTAAGAGATGAATAATCCCTCAATATAAATATCTCTCACTTATTTAAA | 0.126 | –
ACAGACGAAGGAGCCGCAAAGAAGTTATTACGGTATGAATAATCCCTCAATATAAATATCTCTCACTTATTTAAA | 0.141 | –
ACAGACGAAGGAGCCGCAATGAAATTATTAAGGGATGAATAATCCCTCAATATAAATATCTCTCACTTATTTAAA | 0.875 | cleaved RNA product abundance [1]: 0.716
CGACATGTCCCGCTTCTTTCATTAATGCGTTAGCAACTATTTTGCTATATACATTTACCTTTTAAGAGGAGGAAT | – | cleaved RNA product abundance [3]: 1.28
ACAGACGAAGGAGCCGCAAAGAAGTTATTAAGGGATGAATATTCTCTCAATATAAATATCTCTCACTTATTTAAA | 0.343 | cleaved RNA product abundance [1]: 0.265
CGACATGTCCCGCTTCTTTCATTAATCCGTTAGCAACTGTTTAGGTATATACATTTACCTTTTAAGAGGAGGAAT | – | cleaved RNA product abundance [3]: 0.227
ACAGACGAAGGAGCCGCAAGGAAGTTATTAAGGGATGATTAATCCCTCAATATAAATATCTCTCACTTATTTAAA | 0.959 | –
ACAGACGAAGGAGCCGCAAAGAAGTTATTAAGGGATGAATAATCCTTCAATATAAATATCTCTCACTTATTTAAG | 0.558 | –
ACAGACGAAGGAGCCGCAAAGAAGATATTAAGGGATGAATAATCCCTCAATATAAATAACTCTCACTTATTTAAA | 1.07 | –
ACAGACGAAGGAGCCGCAAAGAAGTTATTAAGGGATGAATAACCCCTCCATATAAATATCTCTCACTTATTTAAA | 0.178 | –
ACAGACGAAGGAGCCGCCAAGAAGTTATTAAGGGATGAAAAATCCCTCAATATAAATATCTCTCACTTATTTAAA | 0.576 | –
ACAGACGAAGGAGCCGCAAAGAAGTTAATAAGGGATGAATAATCCCTTAATATAAATATCTCTCACTTATTTAAA | 0.519 | cleaved RNA product abundance [1]: 0.572
CGACATGTCCCGCTTCTTTCATTATTACGTTAGCAACTGTTTTGCTATATACATTTACCTTTTAAGAGGAGGAAT | – | cleaved RNA product abundance [3]: 1.27
ACAGACGAAGGAGCCGCAAAGAACTTATTAAGTGATGAATAATCCCTCAATATAAATATCTCTCACTTATTTAAA | 0.0735 | –
ACAGACGAAGGAGCCGCAAAGAAGTTATTAAGGGATGAATAATCCCATAATATAAATATCTCTCACTTATTTAAA | 0.715 | –
ACAGACGAAGGAGCCGCAAAGAACTGATTAAGGGATGAATAATCCCTCAATATAAATATCTCTCACTTATTTAAA | 0.238 | –
ACAGACGAAGGAGCCGCAAAGAAGTTATTAAGGGATGAATAATACCTCAATACAAATATCTCTCACTTATTTAAA | 0.0658 | –
